In US20110206727A1:

Molecular target: OmpC porin purified from Salmonella typhi (Salmonella enterica subsp. enterica serovar Typhi)
Assay: phage display panning on OmpC; frequency among 8 sequenced binding phage

| Substance | Frequency (fraction of sequenced phage clones) |
| --- | --- |
| OmpC affinity peptide TATYLLD | 0.125 |
| OmpC affinity peptide SLSLIQT | 0.125 |
